Measured values from article PMC6644000 (Cell, 2019).

Biological target: T1, REV1 C-terminal domain (CTD) (mouse, UniProt Q920Q2 1150-1249)
T1 sequence (looked up): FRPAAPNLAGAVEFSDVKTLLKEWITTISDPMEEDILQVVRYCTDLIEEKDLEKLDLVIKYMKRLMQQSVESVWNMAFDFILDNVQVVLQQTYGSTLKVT
Experiment: crystal structure

binding result: binds
Binder: KSFFDKKRSERISN (domain or fragment, mouse, UniProt Q9QUG2 564-577, looked up) [POL κ RIR (REV1-interacting region) peptide]
